# Source: US20230117827A1, “COMPOSITION COMPRISING A FLUOROPHORE LABELLED UPAR-TARGETING PEPTIDE CONJUGATE” (FLUOGUIDE A/S, priority 2020, published 2023)
# Assays:
# Format in all cases: physicochemical
# [1] = Solubilization of composition 1 judged by absorbance and emission spectra
# Procedure: A composition comprising the fluorophore labelled receptor-targeting peptide conjugate ICG-Glu-Glu-AE105 (called composition 1 below) is soluble in DMSO in concentrations up to 20 mg/ml with a peak spectral absorption at 800 nm similar to indocyanine green (ICG) currently used in the clinic for visual assessment of vessels, blood flow and related tissue perfusion, fig. A.
# An aqueous formulation of composition 1 of 1.0 mg/ml has been developed according to the present invention, using excipients suitable for pharmaceutical formulation development.
# A. Excitation was conducted at 775 nm.
# Further Explanation of the Figs. A-D A. Absorbance and emission spectrum of FG001 dissolved in DMSO and PBS at 1.0 mg/ml. Excitation wavelength: 775 nm. Analytical samples for absorbance measurement were further diluted 200-fold and 400-1000-fold for emission spectra. B. Absorbance spectrum of FG001 dissolved in 1) 10 mM sodium phosphate, 45 mg/ml mannitol, pH 7.4, 2) 10 mM sodium phosphate, 45 mg/ml mannitol, 1% Polysorbate 20, pH 7.4 and 3) PBS, 0.2 g/ml HBC. Analytical samples for absorbance measurement were further diluted 200-fold and 400-1000-fold for emission spectra C. […] Excitation wavelength: 775 nm. Analytical samples for absorbance measurement were further diluted 200-fold and 400-1000-fold for emission spectra
# [2] = Long term storage stability, visual inspection and pH; conditions: for pH: reconstituted
# Procedure: (§1) The long term stability of composition 1 at a concentration of 1.0 mg/ml was evaluated as a lyophilizate in one formulation comprising 10 mM sodium phosphate, 26 mg/ml mannitol, 9.0 mg/ml glycine, 0.025% Polysorbate 20, pH 7.4 Composition 1 was weighed into the formulation buffer and pH was adjusted to 7.4 using sodium hydroxide or hydrochloric acid. The bulk formulation was sterile filtered through suitable sterile filters and filled into 6R vials. The vials were placed with stoppers in a lyophilizer and lyophilized using a standard program. Following lyophilization all vials were capped, visual inspected and stored protected from light at 5° C., 25° C./60% RH or 40° C./75% RH for up to 9 months
# (§2) At the selected timepoint, a vial is removed from the stability chamber for visual inspection of the lyophilizate and water content determination. Another vial is reconstituted with water for injection prior to analyzing the corresponding liquid formulation for purity, pH and visual appearance.
# [3] = Long term storage stability of lyophilizate, purity by RP-HPLC; conditions: for Purity, main peak following storage at 5° C. / Purity, main peak following storage at 25° C./60% RH / Purity, main peak following storage at 40° C./75% RH: 780 nm
# Procedure: as §1, §2
# RP-HPLC to detect purity of reconstituted composition 1: Mobile phase A was composed of purified water/acetonitrile (80/20 v/v) with 5 mM ammonium acetate and mobile phase B was composed of purified water/acetonitrile (10/90 v/v) with 5 mM ammonium acetate. A Waters XBridge BEH Peptide, 3.5 μm, 130Å, 4.6×150 mm column was used. Flow rate was set to 1.0 mL/min,detection was at a wavelength of 780 nm, the column running temperature was 45° C. The sample cooler temperature was set at 5° C. and the sample injection load was 10 μg.
# [4] = Long term storage stability, water content of lyophilizate by Karl Fisher titration
# Procedure: as §1, §2
# The water content of the lyophilizate was determined by Karl Fisher titration according to Ph. Eur. 2.5.32.
# [5] = storage at 25° C./60% RH, 0 months
# [6] = storage at 25° C./60% RH, 1 months
# [7] = storage at 25° C./60% RH, 3 months
# [8] = storage at 25° C./60% RH, 6 months
# [9] = storage at 25° C./60% RH, 9 months
# [10] = Example 4 lyophilizate, 0 months
# [11] = Example 4 lyophilizate, 1 months
# [12] = Example 4 lyophilizate, 3 months
# [13] = Example 4 lyophilizate, 6 months
# [14] = Example 4 lyophilizate, 9 months
smiles,measurement,setting,value
"CC(C)C[C@H](NC(=O)[C@H](Cc1ccc(O)cc1)NC(=O)C(CCCNC(=N)N)NC(=O)C(CO)NC(=O)C(Cc1ccccc1)NC(=O)[C@H](CC1CCCCC1)NC(=O)C(CC(=O)O)NC(=O)C(CCC(=O)O)NC(=O)C(CCC(=O)O)NC(=O)CCCCCN1\C(=C/C=C/C=C/C=C/C2=[N+](CCCCS(=O)(=O)[O-])c3ccc4ccccc4c3C2(C)C)C(C)(C)c2c1ccc1ccccc21)C(=O)N[C@@H](Cc1c[nH]c2ccccc12)C(=O)N[C@@H](CO)C(=O)O (stereo partly drawn) [composition 1, ICG-Glu-Glu-AE105]",peak absorption,"[1]; 10 mM sodium phosphate, 45 mg/ml mannitol, pH 7.4",shifted towards the peak absorption at 800 nm
same,solubility,"[1]; DMSO, read-out: soluble in DMSO in concentrations",≤ 20 mg/mL
same,peak spectral absorption,[1]; in DMSO,800 nm
same,spectral absorption in the range from 700 nm to 825 nm,"[1]; phosphate buffer saline, 1.0 mg/ml",clear double peak
same,emission spectrum,"[1]; phosphate buffer saline, 1.0 mg/ml, excitation 775 nm",significantly lower fluorescent peak at 800 nm
same,solubility in phosphate buffer saline,[1]; tested concentration 1.0 mg/ml,not soluble
same,pH,"[2]; storage at 5° C., 0 months",7.4
same,pH,"[2]; storage at 5° C., 1 months",7.3
same,pH,"[2]; storage at 5° C., 3 months",7.4
same,pH,"[2]; storage at 5° C., 6 months",7.3
same,pH,"[2]; storage at 5° C., 9 months",7.4
same,pH,[2]; [5],7.4
same,pH,[2]; [6],7.3
same,pH,[2]; [7],7.4
same,pH,[2]; [8],7.3
same,pH,[2]; [9],7.4
same,"pH, appearance of the lyophilizate and clarity of reconstituted liquid formulation",[2]; up to 9 months storage,remains unchaged
same,"Purity, main peak following storage at 5° C.","[3]; Example 4 lyophilizate (mannitol/glycine/0.025% Polysorbate 20), 0 months",96.6 area %
same,"Purity, main peak following storage at 25° C./60% RH",[3]; [10],96.6 area %
same,"Purity, main peak following storage at 40° C./75% RH",[3]; [10],96.6 area %
same,"Purity, main peak following storage at 5° C.",[3]; [11],96.2 area %
same,"Purity, main peak following storage at 25° C./60% RH",[3]; [11],96.2 area %
same,"Purity, main peak following storage at 40° C./75% RH",[3]; [11],96.0 area %
same,"Purity, main peak following storage at 5° C.",[3]; [12],96.5 area %
same,"Purity, main peak following storage at 25° C./60% RH",[3]; [12],96.6 area %
same,"Purity, main peak following storage at 40° C./75% RH",[3]; [12],95.9 area %
same,"Purity, main peak following storage at 5° C.",[3]; [13],96.3 area %
same,"Purity, main peak following storage at 25° C./60% RH",[3]; [13],95.6 area %
same,"Purity, main peak following storage at 40° C./75% RH",[3]; [13],93.9 area %
same,"Purity, main peak following storage at 5° C.",[3]; [14],96.2 area %
same,"Purity, main peak following storage at 25° C./60% RH",[3]; [14],96.2 area %
same,"time shown to be stable, judged by the purity determination","[3]; selected formulation, storage conditions 5° C. and 25° C./60% RH",up to 9 months
same,residual water content,[4]; following 9 months storage at 25° C./60% RH,around 2%
same,Residual water,"[4]; storage at 5° C., 0 months",1.0%
same,Residual water,"[4]; storage at 5° C., 1 months",1.2%
same,Residual water,"[4]; storage at 5° C., 3 months",1.8%
same,Residual water,"[4]; storage at 5° C., 6 months",1.7%
same,Residual water,"[4]; storage at 5° C., 9 months",1.6%
same,Residual water,[4]; [5],1.0%
same,Residual water,[4]; [6],1.8%
same,Residual water,[4]; [7],1.7%
same,Residual water,[4]; [8],1.7%
same,Residual water,[4]; [9],1.9%
